From the nanobody polyreactivity screen of Harvey et al. (2022)

Test: yeast display, Sf9 membrane polyspecificity reagent, FACS + sequencing; frameworks hold sequencing errors
Summary of the method: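 Genes from sorted yeast were amplified by colony PCR, read by MiSeq 2 × 250 sequencing and filtered on CDR length. These cells carried a synthetic nanobody library in Saccharomyces cerevisiae BJ5465 and were sorted by FACS into low and high (top ~1%) gates on anti-HA and streptavidin fluorescence. Polyreactivity is labelled according to the gate of origin.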

Sequence	polyreactivity (PSR sort gate)
QVQLVESGGGLVQAGGSLRLSCAASGRTFYYYAMGWSRQAPGKERELVAAINRGGSTNYADSVKGRFTISRDNAKNTVYLQMNSQKPEATAVYDCNAAYYGPVRSKYVYWGQGTQVTVSS	high polyreactivity
QVQLVESGGGLVQAGGSLRLSCAASGRTFYYYAMGWYRPAPGKERELVAAISWSGGRTYYADSVKGRFTISRDNAKNTVYLQMNSLKPEDTAVYYCNAEPPRGYTVSSGGEMDYWGQGTQVTVSS	low polyreactivity
QVQLVESGGGLVQAGGSLRLSCAASGRTFYYYAMGWYRQAPGKEREFVAAISWSGVRTSYADSVKGRFTISRDNAKNTVNLQMNSLKPEDTAVYYCATKPNPQSRPRYDHWGQGTQVTVSS	high polyreactivity
QVQLVESGGGLVQAGGSLRLSCAASGRTFYYYAMGWYRQAPGKEREFVASITWRGGRTYYADSVKGRFTISRDNAKNTVYLQMNSLKPEDTAVYYCAADGSYAIGGYGYWGQGTQVTVSS	high polyreactivity
QVQLVESGGGLVQAGGSLRLSCAASGRTFYYYAMGWYRQAPGKEREFVASITWRGGRTYYADSVKGRFTISRDNAKNTVYLQMNSLKPEDTAVYYCAAESYHPEYYYWGQGTQVTVSS	high polyreactivity
QVQLVESGGGLVQAGGSLRLSCAASGRTFYYYAMGWYRQAPGKERELVAAINTRGTSTYYADSVKGRFTISRDNAKNTVYLQMNSLKPEDTAVYYCAVDPYGDSWEDWFRNYYYGYDYWGQGTQVTVSS	low polyreactivity
QVQLVESGGGLVQAGGSLRLSCAASGRTFYYYTMGWYRQAPGKERELVAAITWNGGSTYYADSVKGRFTISRDNAKNTVYLQMNSLKPEDTAVYYCNARWTWRYDYWGQGTQVTVSS	high polyreactivity
QVQLVESGGGLVQAGGSLRLSCAASGRTGVNAIGWYRQAPGKERELVAAINNGDSTYYADSVKGRFTISRDNAKNTVYLQMNSLKPEDTAVYYCAAGLDEGDYWQESDYWGQGTQVTVSS	low polyreactivity
QVQLVESGGGLVQAGGSLRLSCAASGRTIDPNAMGWYRQAPGKERELVAAISRTGVRTYYADSVMGRFTISRDNAKNTVYLQMNSLKPEDTAVYYCNRYGARSNDYWGQGTQVPVSS	low polyreactivity
QVQLVESGGGLVQAGGSLRLSCAASGRTIDSYAMGWYRQAPGKERELVAAISKSGGRTYYADSVKGRFTISRDNAKNTVYLQMNSLKPEDTAVYYCNAQRVAYWRVAYDYWGQGTQVTVSS	high polyreactivity
QVQLVESGGGLVQAGGSLRLSCAASGRTIGGYAMGWYRQAPGKERELVATITRGGRTYYADSVKGRFTISRDNAKNTVYLQMNSLKPEDTAVYYCAARYGQSRSVYNLYRFDYWGQGTQVTVSS	high polyreactivity
QVQLVESGGGLVQAGGSLRLSCAASGRTIGQNAMGWYRQAPGKERELVAAISASGSNTYYADSVKGRFTISRDNAKNTVYLQMNSLKPEDTAVYYCAKQVYRPGQQSRYDYWGQGTQVTVSS	low polyreactivity
QVQLVESGGGLVQAGGSLRLSCAASGRTIGVYAMGWYRQAPGKERELVAAISWSGGTTYYADSVKGRFTISRDNAKYTVYLQMNSLKPEDTAVYYCAADSYTEVDYWGQGTQVTVSS	low polyreactivity
QVQLVESGGGLVQAGGSLRLSCAASGRTIIYNTMGWYRQAPGKEREFVAAINWSGGSTYYADSAKGRFTISRDNAKNTVYLQMNSLKPEDTAVYYCNAEAGYYRALIYDYWGQGTQVTVSS	low polyreactivity
QVQLVESGGGLVQAGGSLRLSCAASGRTIKYYAMGWYRQAPGKERQLVAVISWSGGRTYYADSVKGRFTISRDNAKNTVYLQMNSLKPEDTAVYYCNAVYPYYYLLKRYKEGYWGLGTQVTVSS	high polyreactivity
QVQLVESGGGLVQAGGSLRLSCAASGRTIPTYVMGWYRQAPGKERELVASIRSGGRTKYADSVKGRFTISRDNAKNTVYLQMNSLKPEDTAVYYCAADRRAYYYSFDYWGQGTQVTVSS	low polyreactivity
QVQLVESGGGLVQAGGSLRLSCAASGRTIPWNVMGWYRQAPGKERELVATITSRRTSTNYADSVKGRFTISRDNAKNTVYLQMNSLKPEDTAVYYCARRTVWGAGHYYYWGQGTQVTVSS	high polyreactivity
QVQLVESGGGLVQAGGSLRLSCAASGRTIPYKSMGWYRQAPGKERELVAAITSGGTTNYADSVKGRFTISRDNAKNTVYLQMNSLKPVDTAVYYCAADSDASSQFRRDYWGQGTQVNVSS	low polyreactivity
QVQLVESGGGLVQAGGSLRLSCAASGRTIQTYTMGWYRQAPGKERELDAVITTRGGRTYYADSVKGRFTISRDNAKNTVYLQMNSLKPEDTAVYYCNKGIPTRSVRSYDYWGQGTQVTVSS	high polyreactivity
QVQLVESGGGLVQAGGSLRLSCAASGRTIQTYVMGWYRQAPGKERELVASIRSGGRTKYADSVKGRFTISRDNAKNTVYLQMNSLKPEDTAVYYCAADRRAYYYSFDYWGQGTQVTVSS	low polyreactivity
QVQLVESGGGLVQAGGSLRLSCAASGRTISVYGMGWYRQAPGKERELVASIPWRGGTTYYADSVKGRFTISRDNAKNTVYLQMNSLKPEDTAVYYCAIEPFRFRYYYWGQGTQVTVSS	high polyreactivity
QVQLVESGGGLVQAGGSLRLSCAASGRTISYYAMVWYRPAPGKERELVAAISSSGGSTYYADSVKGRFTISRDNAKNTFYLQMNSLKPEDTAVYYCAAYQRGNRYDYWGQGTQVTVSS	high polyreactivity

Sequence	polyreactivity (PSR sort gate)
QVQLVESGGGLVQAGGSLRLSCAASGRTITAYTMVWYRQAPVKEREMVASISSGVTYADSVKGRFTISRDNAKNTVYLQMNRLKPEDTAVYYCAARLWYVQGYVPYVHHRFDYWGQGTQVTVSS	low polyreactivity
QVQLVESGGGLVQAGGSLRLSCAASGRTITFNTMGWYRQAPGKERELVAGIDRGGSTNYADSVKGRFTISRDNAKNTVYLQMNSLKPEDTAVYYCAKRWTGLGGYYYWGQGTQVTVSS	high polyreactivity
QVQLVESGGGLVQAGGSLRLSCAASGRTITFYTMGWYRQAPVKERELVARITGGGSTFYADSVKGRFTISRDNAKNTVYLLMNSLKPEDTAVYYCAREYASAFWYPMYYWGQGTQVNVSS	low polyreactivity
QVQLVESGGGLVQAGGSLRLSCAASGRTIVWYAMGWYRQAPGKERELVAAISKRGGSTYYADSVKGRFTISRDNAKNTVYLQMNSLKPEDTAVYYCAAEVYYGSSYGYWGQGTQVTVSS	high polyreactivity
QVQLVESGGGLVQAGGSLRLSCAASGRTIWYYAMGWYRQAPGKERELVAAITNRGGSTSYADSVKVRFTISRDNVKNTVYLQMNSLKPEDTAVYYCAKENYYGGGFDYWGQGTQVTVSS	high polyreactivity
QVQLVESGGGLVQAGGSLRLSCAASGRTIYQYAMGGYRQATGKARELDAAISRGGSTNFADSLKGRFTISRDNAKNTVYLQMNSLKPEDTAVYYCASWYKFLSLKRLYERDYWGQGTQVTVSS	high polyreactivity
QVQLVESGGGLVQAGGSLRLSCAASGRTIYQYAMGWYRQAPGKERELVAAITDNGGRTYYADSVKGRFTISCDNAKNTVYLQMNSLKPEDTAVYYCAAEIWTYSYYVVDNGPYDYWGQGTQVTVSS	low polyreactivity
QVQLVESGGGLVQAGGSLRLSCAASGRTIYYYAMGGYRQAPGKEREFVAAISWHGGSTYYADSVKGRFTISRDNAKNTVYLQMNSLKPEDTAVYYCAAERYDRVGFDYWGQGTQVTVSS	low polyreactivity
QVQLVESGGGLVQAGGSLRLSCAASGRTLAFNAMGWYRQAPGKERELVAVIRNGTSTNYADSVKGRFTISRDNAKNTVYLQMNSLKPEDTAVYYCNVPYYLPSYLSGYDYWGQGTQVTVSS	low polyreactivity
QVQLVESGGGLVQAGGSLRLSCAASGRTLAPYAMGWYRQAPGKERELVAISTIGGSTYYADSVKGRFTISRDNAKNTVYLQMNSLKPEETAVYYGAADGNSTGVYLAGGEGFAYDYWGQVTQVTVSS	low polyreactivity
QVQLVESGGGLVQAGGSLRLSCAASGRTLASNAMGWYRQAPGKEREFVAAITDSGGRTYYADSVKGRFTISRDNAKNTVYLQMNSLKPEDTAVYYCNAYQYYERYDTYLFRYDYWGQGTQVTVSS	low polyreactivity
QVQLVESGGGLVQAGGSLRLSCAASGRTLATYAMGWYRQAPGKERELVADISWRGGTTYYADSVKGRFTISRDNAKNTVYLQMNSLKPEDTAVYYCAAVRKQGSGFDYWGQGTQVTLSS	high polyreactivity
QVQLVESGGGLVQAGGSLRLSCAASGRTLDKYAIGWYRQAPGKERELVAAITSGGTTKYADSVKGRFTISRDNAKNTVYLQMNSLKPEVTAVYYCAKDLEGNPHFSYGIDFDYWGQGTQVTVSS	low polyreactivity
QVQLVESGGGLVQAGGSLRLSCAASGRTLDKYAMGWYRQAPGKERELVAAITSGGSTNYADSVKGRFTISRDNAKNTVYLQMNSLKPEDTAVYYCAKDLQGNPHFSYGIDFDYWGQGTQVTVSS	low polyreactivity
QVQLVESGGGLVQAGGSLRLSCAASGRTLEDYVMGWYRQAPGKERELVAAISWSGVSTYYADSVKGRFTISRDNEKNTVYLQMNSLKPEDTAVYYCAKDSTADELTGFDYWGQGTQVNVSS	low polyreactivity
QVQLVESGGGLVQAGGSLRLSCAASGRTLFHYAMGWYRQAPGKERELVAAIRNSDGSTYYADSVKGRFTISRDNAKNTVYLQMNSLKPEDTAVYYCAAVRRYHSYPDGGYWGQGTQVTVSS	high polyreactivity
QVQLVESGGGLVQAGGSLRLSCAASGRTLGGYAMGWYIQATGKERELVAAITRRGGSTYYADSVKGRFTISRDNAKNTVYLQMNSLKPEDTAVYYCAARWYARSLTRFNYWGQGTQVTVSS	high polyreactivity
QVQLVESGGGLVQAGGSLRLSCAASGRTLGGYTMGWYRQAPGKEREVVAGISFRGDSTYYADSVKGRFTLSRANAKNTVYLQMNSLKPEDTAVYYCNARGTPWRYGGDYWGQGTQVTVSS	low polyreactivity
QVQLVESGGGLVQAGGSLRLSCAASGRTLGRYAMGWYRQAPGKERELVAAMNVGGGTTHYADSVKGRFTISRDNAKNTVYLQMNSLKPEDTAVYYCAAYRYTYGDRHAYDYWGQGTQVTVSS	low polyreactivity
QVQLVESGGGLVQAGGSLRLSCAASGRTLGYYAMGWYRQAPGTERELVAAISGSGGITYYADSVKGRFTISRDNAKNTVYLQMNSLKPEDTAVYFCNVDPTAKWFNYDSWGQGTQVTVSS	low polyreactivity
QVQLVESGGGLVQAGGSLRLSCAASGRTLHAYTMGWYRQAPGSERELVAAITRGGGNTYYADSVKGRFTISRDNAKNTVYLQLNSLKPEDTAVYYCNAAVSGYLSYEYDYWGQGTQVTVSS	low polyreactivity
